The labels stand for the following.
B1: UV excision repair protein RAD23 homolog B (Homo sapiens), P54727 (parent)
chain: MQVTLKTLQQQTFKIDIDPEETVKALKEKIESEKGKDAFPVAGQKLIYAGKILNDDTALKEYKIDEKNFVVVMVTKPKAVSTPAPATTQQSAPASTTAVTSSTTTTVAQAPTPVPALAPTSTPASITPASATASSEPAPASAAKQEKPAEKPAETPVATSPTATDSTSGDSSRSNLFEDATSALVTGQSYENMVTEIMSMGYEREQVIAALRASFNNPDRAVEYLLMGIPGDRESQAVVDPPQAASTGAPQSSAVAAAAATTTATTTTTSSGGHPLEFLRNQPQFQQMRQIIQQNPSLLPALLQQIGRENPQLLQQISQHQEHFIQMLNEPVQEAGGQGGGGGGGSGGIAEAGSGHMNYIQVTPQEKEAIERLKALGFPEGLVIQAYFACEKNENLAANFLLQQNFDED
B2: UV excision repair protein RAD23 (Saccharomyces cerevisiae), P32628 (parent)
chain: MVSLTFKNFKKEKVPLDLEPSNTILETKTKLAQSISCEESQIKLIYSGKVLQDSKTVSECGLKDGDQVVFMVSQKKSTKTKVTEPPIAPESATTPGRENSTEASPSTDASAAPAATAPEGSQPQEEQTATTERTESASTPGFVVGTERNETIERIMEMGYQREEVERALRAAFNNPDRAVEYLLMGIPENLRQPEPQQQTAAAAEQPSTAATTAEQPAEDDLFAQAAQGGNASSGALGTTGGATDAAQGGPPGSIGLTVEDLLSLRQVVSGNPEALAPLLENISARYPQLREHIMANPEVFVSMLLEAVGDNMQDVMEGADDMVEGEDIEVTGEAAAAGLGQGEGEGSFQVDYTPEDDQAISRLCELGFERDLVIQVYFACDKNEEAAANILFSDHAD
B3: 26S proteasome regulatory subunit RPN10 (Saccharomyces cerevisiae), P38886 (parent)
chain: MVLEATVLVIDNSEYSRNGDFPRTRFEAQIDSVEFIFQAKRNSNPENTVGLISGAGANPRVLSTFTAEFGKILAGLHDTQIEGKLHMATALQIAQLTLKHRQNKVQHQRIVAFVCSPISDSRDELIRLAKTLKKNNVAVDIINFGEIEQNTELLDEFIAAVNNPQEETSHLLTVTPGPRLLYENIASSPIILEEGSSGMGAFGGSGGDSDANGTFMDFGVDPSMDPELAMALRLSMEEEQQRQERLRQQQQQQDQPEQSEQPEQHQDK
partner: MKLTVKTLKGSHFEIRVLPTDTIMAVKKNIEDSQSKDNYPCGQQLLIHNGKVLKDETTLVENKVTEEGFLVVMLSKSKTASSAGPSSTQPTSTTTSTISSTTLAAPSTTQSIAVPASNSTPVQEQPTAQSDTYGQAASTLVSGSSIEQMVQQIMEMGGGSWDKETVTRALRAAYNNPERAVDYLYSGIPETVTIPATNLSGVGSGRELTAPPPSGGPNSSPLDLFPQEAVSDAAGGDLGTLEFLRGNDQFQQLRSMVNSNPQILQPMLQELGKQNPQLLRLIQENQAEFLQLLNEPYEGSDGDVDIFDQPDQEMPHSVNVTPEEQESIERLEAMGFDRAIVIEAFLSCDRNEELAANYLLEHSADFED
B4: 26S proteasome regulatory subunit RPN10 (Saccharomyces cerevisiae), P38886 (parent)
chain: B3 chain
B5: 26S proteasome non-ATPase regulatory subunit 4 homolog (Arabidopsis thaliana (Mouse-ear cress)), P55034 (parent)
chain: MVLEATMICIDNSEWMRNGDYSPSRLQAQTEAVNLLCGAKTQSNPENTVGILTMAGKGVRVLTTPTSDLGKILACMHGLDVGGEINLTAAIQIAQLALKHRQNKNQRQRIIVFAGSPIKYEKKALEIVGKRLKKNSVSLDIVNFGEDDDEEKPQKLEALLTAVNNNDGSHIVHVPSGANALSDVLLSTPVFTGDEGASGYVSAAAAAAAAGGDFDFGVDPNIDPELALALRVSMEEERARQEAAAKKAADEAGQKDKDGDTASASQETVARTTDKNAEPMDEDSALLDQAIAMSVGDVNMSEAADEDQDLALALQMSMSGEESSEATGAGNNLLGNQAFISSVLSSLPGVDPNDPAVKELLASLPDESKRTEEEESSSKKGEDEKK
partner: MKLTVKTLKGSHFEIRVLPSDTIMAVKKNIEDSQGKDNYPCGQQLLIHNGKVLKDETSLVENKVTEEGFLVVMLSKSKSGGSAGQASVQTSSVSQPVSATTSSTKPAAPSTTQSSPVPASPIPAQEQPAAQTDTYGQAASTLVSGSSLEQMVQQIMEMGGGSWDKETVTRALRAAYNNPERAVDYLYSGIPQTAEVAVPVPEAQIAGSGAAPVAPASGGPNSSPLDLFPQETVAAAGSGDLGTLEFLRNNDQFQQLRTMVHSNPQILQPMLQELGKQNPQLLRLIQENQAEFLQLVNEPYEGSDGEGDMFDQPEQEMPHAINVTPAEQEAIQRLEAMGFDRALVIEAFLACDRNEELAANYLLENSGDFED
B6: 26S proteasome non-ATPase regulatory subunit 4 homolog (Arabidopsis thaliana (Mouse-ear cress)), P55034 (parent)
chain: B5 chain
partner: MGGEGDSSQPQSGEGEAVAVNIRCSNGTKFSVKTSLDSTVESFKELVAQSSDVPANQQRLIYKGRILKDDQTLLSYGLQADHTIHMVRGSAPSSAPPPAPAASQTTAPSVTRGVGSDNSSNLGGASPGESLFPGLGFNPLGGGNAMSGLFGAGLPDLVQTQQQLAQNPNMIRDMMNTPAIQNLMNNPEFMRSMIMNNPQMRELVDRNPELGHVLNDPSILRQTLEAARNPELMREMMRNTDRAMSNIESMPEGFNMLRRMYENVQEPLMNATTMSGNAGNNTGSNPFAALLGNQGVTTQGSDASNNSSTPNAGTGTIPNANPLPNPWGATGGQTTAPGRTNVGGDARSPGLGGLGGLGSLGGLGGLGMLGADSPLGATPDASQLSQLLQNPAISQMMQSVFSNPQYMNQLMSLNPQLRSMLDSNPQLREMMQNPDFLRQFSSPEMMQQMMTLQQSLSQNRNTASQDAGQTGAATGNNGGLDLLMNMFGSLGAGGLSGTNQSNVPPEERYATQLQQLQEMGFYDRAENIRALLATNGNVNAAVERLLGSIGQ
B7: 26S proteasome non-ATPase regulatory subunit 4 homolog (Arabidopsis thaliana (Mouse-ear cress)), P55034 (parent)
chain: B5 chain

In one experiment the parent is B1. The conditions noted are these: with ubc_human UBC.
Target sequence in this assay (P0CG48 whole entry, looked up): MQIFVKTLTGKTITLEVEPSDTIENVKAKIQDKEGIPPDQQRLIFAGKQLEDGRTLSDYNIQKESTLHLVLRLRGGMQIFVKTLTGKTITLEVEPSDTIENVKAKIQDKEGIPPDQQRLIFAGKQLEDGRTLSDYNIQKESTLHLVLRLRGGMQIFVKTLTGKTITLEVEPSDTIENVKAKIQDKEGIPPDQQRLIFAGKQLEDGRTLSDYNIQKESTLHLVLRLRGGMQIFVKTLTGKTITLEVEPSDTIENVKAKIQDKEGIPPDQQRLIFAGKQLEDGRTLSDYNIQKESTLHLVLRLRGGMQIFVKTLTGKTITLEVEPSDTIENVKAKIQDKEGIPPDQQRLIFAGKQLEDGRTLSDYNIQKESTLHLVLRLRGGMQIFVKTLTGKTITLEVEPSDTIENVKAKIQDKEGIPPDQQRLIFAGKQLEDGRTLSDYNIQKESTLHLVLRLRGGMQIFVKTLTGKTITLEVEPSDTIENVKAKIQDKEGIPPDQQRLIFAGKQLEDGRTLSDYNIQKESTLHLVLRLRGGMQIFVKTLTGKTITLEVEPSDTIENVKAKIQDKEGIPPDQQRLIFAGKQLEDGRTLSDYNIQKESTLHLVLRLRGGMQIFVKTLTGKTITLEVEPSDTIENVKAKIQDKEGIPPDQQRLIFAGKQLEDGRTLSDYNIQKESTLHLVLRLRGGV
Turning to M200A;G201A;Y202A;L376A;G377A;F378A, the “effect of a mutation on the interaction” value is reported as “disrupting interaction strength”.

In another experiment the parent is B2. The following applies: with ubc_human UBC.
Target sequence in this assay (P0CG48 whole entry, looked up): as above
Regarding L367A;G368A;F369A, the “effect of a mutation on the interaction” value is listed as “with no effect”.
Take M158A;G159A;Y160A: the “effect of a mutation on the interaction” value is “disrupting interaction strength”.
With M158A;G159A;Y160A;L367A;G368A;F369A, the “effect of a mutation on the interaction” value is “disrupting interaction strength”.

The variants in another experiment derive from B2. The following applies: with ubc_human UBC. The source holds these as a separate data set.
Target sequence in this assay (P0CG48 whole entry, looked up): as above
Turning to M158A;G159A;Y160A, the “effect of a mutation on the interaction” value was “decreasing interaction strength”.

The variants in a further experiment derive from B3. The conditions noted are these: with rd23a_arath RAD23A.
In the case of L228N;A229N;M230N;A231N;L232N, the “effect of a mutation on the interaction” value is “disrupting interaction strength”.

The variants in another experiment derive from B4. The following applies: with dsk2_yeast DSK2, P48510.
For L228N;A229N;M230N;A231N;L232N, the “effect of a mutation on the interaction” value was “disrupting interaction strength”.

Another experiment covers variants of B4. The following applies: with ubql2_human UBQLN2, Q9UHD9.
Target sequence in this assay (Q9UHD9 whole entry): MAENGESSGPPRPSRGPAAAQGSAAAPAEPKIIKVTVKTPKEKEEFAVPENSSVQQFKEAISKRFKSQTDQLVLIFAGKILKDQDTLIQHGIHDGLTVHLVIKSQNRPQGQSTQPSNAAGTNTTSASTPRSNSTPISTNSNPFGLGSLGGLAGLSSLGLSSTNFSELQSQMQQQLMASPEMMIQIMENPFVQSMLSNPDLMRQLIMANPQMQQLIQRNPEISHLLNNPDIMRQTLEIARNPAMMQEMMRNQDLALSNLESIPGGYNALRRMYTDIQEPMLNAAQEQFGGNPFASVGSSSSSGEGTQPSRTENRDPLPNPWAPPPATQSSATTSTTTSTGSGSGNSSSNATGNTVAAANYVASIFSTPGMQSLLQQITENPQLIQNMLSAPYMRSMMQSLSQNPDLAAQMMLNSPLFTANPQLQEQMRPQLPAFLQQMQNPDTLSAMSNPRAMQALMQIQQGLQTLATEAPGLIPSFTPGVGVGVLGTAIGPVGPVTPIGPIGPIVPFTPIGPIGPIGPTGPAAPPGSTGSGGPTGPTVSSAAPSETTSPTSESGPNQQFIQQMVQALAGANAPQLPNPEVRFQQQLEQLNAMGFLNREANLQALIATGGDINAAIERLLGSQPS
As to L228N;A229N;M230N;A231N;L232N, the “effect of a mutation on the interaction” value is “disrupting interaction strength”.

A further experiment covers variants of B5. The conditions noted are these: with rd23b_arath RAD23B.
Turning to L226D;A227D;L228D;A229D;L230D;L310N;A311N;L312N;A313D;L314N, the “effect of a mutation on the interaction” value is given as “disrupting interaction strength”.
The same measure, in the same setting: the entry for L286N;L287N;Q289N;A290D is “with no effect”; for L226D;A227D;L228D;A229D;L230D;L286N;L287N;Q289N;A290D it is “decreasing interaction strength”.
Take L310N;A311N;L312N;A313D;L314N: the “effect of a mutation on the interaction” value is “disrupting interaction strength”.
For the variant L226D;A227D;L228D;A229D;L230D, the “effect of a mutation on the interaction” value is “with no effect”.
With L286N;L287N;Q289N;A290D;L310N;A311N;L312N;A313D;L314N, the “effect of a mutation on the interaction” value is recorded as “disrupting interaction strength”.

The variants in another experiment derive from B6. The following applies: with dsk2b_arath DSK2B.
Consider L286N;L287N;Q289N;A290D;L310N;A311N;L312N;A313D;L314N, for which the “effect of a mutation on the interaction” value is reported as “with no effect”.
On to L286N;L287N;Q289N;A290D, for which the “effect of a mutation on the interaction” value was “with no effect”.
L226D;A227D;L228D;A229D;L230D: the “effect of a mutation on the interaction” value was “disrupting interaction strength”.
Turning to L310N;A311N;L312N;A313D;L314N, the “effect of a mutation on the interaction” value was “with no effect”.

Variants of B7 are the subject of a further experiment. The conditions noted are these: with dsk2_yeast DSK2, P48510.
On to L310N;A311N;L312N;A313D;L314N, for which the “effect of a mutation on the interaction” value is “with no effect”.
As to L226D;A227D;L228D;A229D;L230D, the “effect of a mutation on the interaction” value is “disrupting interaction strength”.

Another experiment covers variants of B7. The conditions noted are these: with ubql2_human UBQLN2, Q9UHD9.
Target sequence in this assay (Q9UHD9 whole entry): as above
In the case of L310N;A311N;L312N;A313D;L314N, the “effect of a mutation on the interaction” value is recorded as “with no effect”.
Same read-out and setting: the entry for L226D;A227D;L228D;A229D;L230D is “disrupting interaction strength”.

Variants of B7 are the subject of another experiment. The following applies: with rd23b_human RAD23B.
As to L310N;A311N;L312N;A313D;L314N, the “effect of a mutation on the interaction” value is on record as “disrupting interaction strength”.
The same measure, in the same setting: for L226D;A227D;L228D;A229D;L230D the value was “with no effect”.

These data come from IntAct's records for PubMed 20059542.
